Reference: publication doi:10.1101/2021.04.30.442189

Biological target: T1, TRF2 (human), Q15554
T1 chain: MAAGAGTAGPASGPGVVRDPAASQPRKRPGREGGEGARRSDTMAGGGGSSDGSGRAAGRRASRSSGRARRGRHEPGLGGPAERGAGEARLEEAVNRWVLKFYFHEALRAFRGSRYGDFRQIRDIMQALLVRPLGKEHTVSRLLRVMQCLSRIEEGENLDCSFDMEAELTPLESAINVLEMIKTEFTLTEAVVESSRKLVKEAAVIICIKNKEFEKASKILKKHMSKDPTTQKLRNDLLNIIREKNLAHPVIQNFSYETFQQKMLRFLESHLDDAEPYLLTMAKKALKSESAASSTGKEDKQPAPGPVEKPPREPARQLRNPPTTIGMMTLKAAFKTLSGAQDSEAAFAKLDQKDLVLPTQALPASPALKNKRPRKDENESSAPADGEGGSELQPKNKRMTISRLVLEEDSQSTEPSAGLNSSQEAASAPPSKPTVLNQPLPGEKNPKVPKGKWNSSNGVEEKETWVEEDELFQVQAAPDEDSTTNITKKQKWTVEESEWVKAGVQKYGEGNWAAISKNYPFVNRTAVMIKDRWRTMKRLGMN
Details: remark: other sources report otherwise

B1: TRF2, Q15554 1-542 (natural protein)
chain: MAAGAGTAGPASGPGVVRDPAASQPRKRPGREGGEGARRSDTMAGGGGSSDGSGRAAGRRASRSSGRARRGRHEPGLGGPAERGAGEARLEEAVNRWVLKFYFHEALRAFRGSRYGDFRQIRDIMQALLVRPLGKEHTVSRLLRVMQCLSRIEEGENLDCSFDMEAELTPLESAINVLEMIKTEFTLTEAVVESSRKLVKEAAVIICIKNKEFEKASKILKKHMSKDPTTQKLRNDLLNIIREKNLAHPVIQNFSYETFQQKMLRFLESHLDDAEPYLLTMAKKALKSESAASSTGKEDKQPAPGPVEKPPREPARQLRNPPTTIGMMTLKAAFKTLSGAQDSEAAFAKLDQKDLVLPTQALPASPALKNKRPRKDENESSAPADGEGGSELQPKNKRMTISRLVLEEDSQSTEPSAGLNSSQEAASAPPSKPTVLNQPLPGEKNPKVPKGKWNSSNGVEEKETWVEEDELFQVQAAPDEDSTTNITKKQKWTVEESEWVKAGVQKYGEGNWAAISKNYPFVNRTAVMIKDRWRTMKRLGMN
- stoichiometry N: 2
